Molecular target: human FcγRIIB (CD32B) on peripheral B cells (human) (UniProt P31994)
Experiment: in vivo receptor occupancy on peripheral B cells of human subjects after infusion of 100 mg BI-1206 (preliminary clinical data)

Sequence of UniProt P31994 (P31994 43-310): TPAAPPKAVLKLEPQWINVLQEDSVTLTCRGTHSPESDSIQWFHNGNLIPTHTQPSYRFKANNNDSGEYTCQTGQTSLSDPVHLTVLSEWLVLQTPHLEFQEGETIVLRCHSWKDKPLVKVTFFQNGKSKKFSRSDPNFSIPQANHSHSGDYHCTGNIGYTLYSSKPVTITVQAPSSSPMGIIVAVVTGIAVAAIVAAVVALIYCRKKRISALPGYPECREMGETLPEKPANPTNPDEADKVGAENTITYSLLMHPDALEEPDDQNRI

BI-1206 (antibody)
receptor occupancy: 100%

From EP3919077A1
